Source: patent publication US20140087995A1 (published 2014)
Numbered stars: 1 amine (or outer) side, 2 acyl side, 3 side chain; on linkers, the order of the positions; unused ones are H or OH. Bridge positions count the residues as written; N and C are the ends. Side chains are listed from the residue outwards. Ends that are not written are not given here. * marks the point of attachment. C20 diacid = O=C(O)CCCCCCCCCCCCCCCCCCC(=O)*; γGlu = O=C(O)[C@H](CCC(=O)[*:2])N[*:1]

Assays:
rat calcitonin receptor [1] = molecular target: T1, rat calcitonin receptor (rat, UniProt P32214 25-516); assay: SPA competition vs 125I-calcitonin, membranes with rat CTR (Assay VIII)
T1 construct: whole, on cells; Cell membranes of transiently transfected BHK tk'ts 13 cells (Assay VIII); also called rCTR; rCT
T1 sequence (looked up): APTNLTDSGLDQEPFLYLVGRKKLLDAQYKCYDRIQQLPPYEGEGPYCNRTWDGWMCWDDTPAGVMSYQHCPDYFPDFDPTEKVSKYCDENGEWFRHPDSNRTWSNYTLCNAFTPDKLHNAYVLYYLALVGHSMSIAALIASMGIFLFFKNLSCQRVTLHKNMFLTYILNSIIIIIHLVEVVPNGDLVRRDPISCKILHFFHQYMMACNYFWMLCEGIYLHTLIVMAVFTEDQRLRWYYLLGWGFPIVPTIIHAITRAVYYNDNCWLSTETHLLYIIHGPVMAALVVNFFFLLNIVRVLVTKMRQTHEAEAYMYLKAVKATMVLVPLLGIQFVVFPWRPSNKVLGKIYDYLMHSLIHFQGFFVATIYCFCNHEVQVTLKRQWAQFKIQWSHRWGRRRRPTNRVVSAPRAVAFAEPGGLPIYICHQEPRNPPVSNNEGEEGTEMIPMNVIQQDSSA

rat calcitonin receptor [2] = molecular target: T1, rat calcitonin receptor; assay: ratio IC50 rat calcitonin receptor / IC50 rat amylin receptor
[3] = molecular target: T2, human calcitonin receptor (human, UniProt P30988 25-474); assay: ratio IC50 human calcitonin receptor / IC50 human amylin receptor
T2 construct: whole, on cells; Cell membranes of a stably transfected BHK cell line (Assay VII); also called hCTR; hCT
T2 sequence (looked up): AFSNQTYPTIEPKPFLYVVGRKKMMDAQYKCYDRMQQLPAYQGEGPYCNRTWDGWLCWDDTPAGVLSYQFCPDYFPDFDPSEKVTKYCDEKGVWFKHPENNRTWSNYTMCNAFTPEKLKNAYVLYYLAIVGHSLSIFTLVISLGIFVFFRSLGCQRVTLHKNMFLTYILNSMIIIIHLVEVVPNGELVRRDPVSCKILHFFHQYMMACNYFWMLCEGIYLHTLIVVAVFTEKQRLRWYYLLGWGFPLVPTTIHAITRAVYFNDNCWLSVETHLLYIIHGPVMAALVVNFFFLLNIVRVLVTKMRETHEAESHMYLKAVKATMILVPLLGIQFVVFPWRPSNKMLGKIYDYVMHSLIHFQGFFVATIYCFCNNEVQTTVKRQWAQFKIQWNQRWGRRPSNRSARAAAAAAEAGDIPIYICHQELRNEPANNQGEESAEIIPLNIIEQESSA
Summary of the method: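 IC₅₀ values were derived by one-site competition analysis of SPA counts. Cell membranes (35 ng/μL) with SPA beads were incubated with test compounds for 120 min at 25° C in Hepes buffer, pH 7.4, containing CaCl2, MgCl₂, OA and Tween20.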

[4] = molecular target: T3, rat amylin receptor (rat calcitonin receptor + rat RAMP 3) (rat, UniProt P32214 25-516; Q9JJ73 23-147); assay: SPA competition vs 125I-rat amylin, membranes with rat CTR + rat RAMP3 (Assay VI)
T3 construct: whole, on cells; Cell membranes of transiently transfected BHK tk'ts 13 cells (Assay VI); also called rAmylin-R; rat amylin 3(a) receptor
T3 sequence (looked up) 1: T1 sequence (looked up)
T3 sequence (looked up) 2: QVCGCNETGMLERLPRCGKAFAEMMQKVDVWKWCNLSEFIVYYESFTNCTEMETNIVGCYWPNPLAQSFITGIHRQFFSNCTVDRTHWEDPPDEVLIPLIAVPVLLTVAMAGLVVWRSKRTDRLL

B1: N^ε1-[(4S)-4-carboxy-4-[[(4S)-4-carboxy-4-(19-carboxynonadecanoylamino)butanoyl]amino]butanoyl]-[Asp14,Arg17,Pro21,Pro27,Asp35]-h-amylin (peptide)
peptide: K([γGlu-γGlu-C20 diacid])CNTATCATQRLADFLRHSSPNFGAIPSSTNVGSDTY-NH2
modifications: disulfide 2-7; N-terminus assumed
SMILES: CC[C@H](C)[C@H](NC(=O)[C@H](C)NC(=O)CNC(=O)[C@H](Cc1ccccc1)NC(=O)[C@H](CC(N)=O)NC(=O)[C@@H]1CCCN1C(=O)[C@H](CO)NC(=O)[C@H](CO)NC(=O)[C@H](Cc1c[nH]cn1)NC(=O)[C@H](CCCNC(=N)N)NC(=O)[C@H](CC(C)C)NC(=O)[C@H](Cc1ccccc1)NC(=O)[C@H](CC(=O)O)NC(=O)[C@H](C)NC(=O)[C@H](CC(C)C)NC(=O)[C@H](CCCNC(=N)N)NC(=O)[C@H](CCC(N)=O)NC(=O)[C@@H](NC(=O)[C@H](C)NC(=O)[C@@H]1CSSC[C@H](NC(=O)[C@@H](N)CCCCNC(=O)CC[C@H](NC(=O)CC[C@H](NC(=O)CCCCCCCCCCCCCCCCCCC(=O)O)C(=O)O)C(=O)O)C(=O)N[C@@H](CC(N)=O)C(=O)N[C@@H]([C@@H](C)O)C(=O)N[C@@H](C)C(=O)N[C@@H]([C@@H](C)O)C(=O)N1)[C@@H](C)O)C(=O)N1CCC[C@H]1C(=O)N[C@@H](CO)C(=O)N[C@@H](CO)C(=O)N[C@H](C(=O)N[C@@H](CC(N)=O)C(=O)N[C@H](C(=O)NCC(=O)N[C@@H](CO)C(=O)N[C@@H](CC(=O)O)C(=O)N[C@H](C(=O)N[C@@H](Cc1ccc(O)cc1)C(N)=O)[C@@H](C)O)C(C)C)[C@@H](C)O
notes: Acylated analogue of human amylin; also called compound 2
In the case of B1, the IC50 (rat calcitonin receptor [1]) is reported as 108 nM, the “Ratio rCT/rAmylin binding” value (rat calcitonin receptor [2]) is reported as 366 and the “Ratio hCT/hAmylin binding” value [3] is reported as 47.5. For the same binder, the IC50 [4] was 0.295 nM.

B2: N{Alpha-1}-[(4S)-4-carboxy-4-(19-carboxynonadecanoylamino)butanoyl]-[Glu14,Arg17,Pro21,Pro27,Lys34]-h-amylin (peptide)
peptide: {C20 diacid-γGlu}-KCNTATCATQRLAEFLRHSSPNFGAIPSSTNVGKNTY-NH2
modifications: disulfide 2-7
SMILES: CC[C@H](C)[C@H](NC(=O)[C@H](C)NC(=O)CNC(=O)[C@H](Cc1ccccc1)NC(=O)[C@H](CC(N)=O)NC(=O)[C@@H]1CCCN1C(=O)[C@H](CO)NC(=O)[C@H](CO)NC(=O)[C@H](Cc1c[nH]cn1)NC(=O)[C@H](CCCNC(=N)N)NC(=O)[C@H](CC(C)C)NC(=O)[C@H](Cc1ccccc1)NC(=O)[C@H](CCC(=O)O)NC(=O)[C@H](C)NC(=O)[C@H](CC(C)C)NC(=O)[C@H](CCCNC(=N)N)NC(=O)[C@H](CCC(N)=O)NC(=O)[C@@H](NC(=O)[C@H](C)NC(=O)[C@@H]1CSSC[C@H](NC(=O)[C@H](CCCCN)NC(=O)CC[C@H](NC(=O)CCCCCCCCCCCCCCCCCCC(=O)O)C(=O)O)C(=O)N[C@@H](CC(N)=O)C(=O)N[C@@H]([C@@H](C)O)C(=O)N[C@@H](C)C(=O)N[C@@H]([C@@H](C)O)C(=O)N1)[C@@H](C)O)C(=O)N1CCC[C@H]1C(=O)N[C@@H](CO)C(=O)N[C@@H](CO)C(=O)N[C@H](C(=O)N[C@@H](CC(N)=O)C(=O)N[C@H](C(=O)NCC(=O)N[C@@H](CCCCN)C(=O)N[C@@H](CC(N)=O)C(=O)N[C@H](C(=O)N[C@@H](Cc1ccc(O)cc1)C(N)=O)[C@@H](C)O)C(C)C)[C@@H](C)O
notes: Acylated analogue of human amylin; also called compound 36
With B2 the IC50 (rat calcitonin receptor [1]) was 60.1 nM, the “Ratio rCT/rAmylin binding” value (rat calcitonin receptor [2]) was 32.4 and the “Ratio hCT/hAmylin binding” value [3] was 15.7. It also gave an IC50 [4] of 1.86 nM.
